From article PMC4970707

Key:
[1] = biological target: NprR(ΔHTH)(Y223A/F225A) (Bacillus thuringiensis (strain 407)); assay: crystal structure; NprR(ΔHTH)(Y223A/F225A) alone, crystallized at 18°C in 1.0 M Na citrate, 0.1 M Hepes pH 7.6; 3.25 Å, space group P 21 21 21, 2 molecules per asymmetric unit
[2] = biological target: NprR from B. thuringiensis strain 407 (NprR-6His) (Bacillus thuringiensis (strain 407)); assay: MST; 33 nM NprR labelled with NT-495-NHS; Bt Spo0F serially diluted from about 260 μM to 8 nM; 5% glycerol in MST buffer (50 mM Tris-HCl pH 7.4, 150 mM NaCl, 10 mM MgCl2, 0.05% Tween-20); 20% LED power, 40% IR-laser power; absence of NprX; apparent Kd

Molecule	stoichiometry N [1]	Kd [2] [µM]
NprR(ΔHTH)(Y223A/F225A) (domain or fragment)	2	
Spo0F from B. thuringiensis (6His-Spo0F) (natural protein) MEGKILIVDDQYGIRVLLHEVFQKEGYQTFQAANGFQALDIVKKDNPDLVVLDMKIPGMDGIEIFKACKEIDESIKVILMSAYGELDMIQEAKDLGALMHFAKPFDIDEIRQAVRNELAVEA		5
